Laboratory results reported in paper PMC10620989 (2023).

Target: Bim BH3 peptide (FITC-labeled) BH3 (Homo sapiens, UniProt O43521, FITC-labeled Bim BH3 peptide, GST-tagged Mcl-1)
Test: fluorescence polarization

Kd: 12.4 nM
B1: Mcl-1 (GST-tagged) 152-309 (protein)
chain: EDDLYRQSLEIISRYLREQATGSKDSKPLGEAGAAGRRALETLRRVGDGVQRNHETAFQGMLRKLDIKNEGDVKSFSRVMVHVFKDGVTNWGRIVTLISFGAFVAKHLKSVNQESFIEPLAETITDVLVRTKRDWLVKQRGWDGFVEFFHVQDLEGGI
